Source: patent US20060148683A1, “Detection and treatment of intravascular lesions” (priority 2001, published 2006)

System: thrombus
Assay: Treatment of a thrombus in guinea pig inferior vena cava monitored by catheter fluorescence detection
Format: in vivo
Conditions: guinea pig IVC thrombus; tPA delivered through the catheter after optical agent 0.02 μmol/kg
Procedure: A guinea pig (Harley, male) is anaesthetized. […] The vessel is allowed to recover for 10 mins. A 1 cm portion of the IVC is clamped and human thrombin (50 μL, 4 units) is injected into the vessel to promote thrombus formation. The lower clamp is opened and closed to allow partial blood flow to the segment. After 2-3 mins., the clips are removed. The thrombus is allowed to age in the animal for 30 mins. At this point, the optical agent is administered at a dose of 0.02 μmol/kg, via injection into the jugular vein. After 30 mins., a catheter with an optical fluorescence detector is inserted into the IVC and the thrombus visualized by detecting the fluorescence signal emitted by the fibrin-optical agent complexes on the thrombus. […] TNKASE™ (Tenecteplase) is a commercially approved tissue plasminogen activator (tPA) produced by recombinant DNA technology and sold by Genetech. The drug is administered intravenously at a dose of 30-50 mg, depending on patient weight.

B1: Tissue plasminogen activator (protein, UniProt P00750 36-562, looked up)
Tissue-type plasminogen …: SYQVICRDEKTQMIYQQHQSWLRPVLRSNRVEYCWCNSGRAQCHSVPVKSCSEPRCFNGGTCQQALYFSDFVCQCPEGFAGKCCEIDTRATCYEDQGISYRGTWSTAESGAECTNWNSSALAQKPYSGRRPDAIRLGLGNHNYCRNPDRDSKPWCYVFKAGKYSSEFCSTPACSEGNSDCYFGNGSAYRGTHSLTESGASCLPWNSMILIGKVYTAQNPSAQALGLGKHNYCRNPDGDAKPWCHVLKNRRLTWEYCDVPSCSTCGLRQYSQPQFRIKGGLFADIASHPWQAAIFAKHRRSPGERFLCGGILISSCWILSAAHCFQERFPPHHLTVILGRTYRVVPGEEEQKFEVEKYIVHKEFDDDTYDNDIALLQLKSDSSRCAQESSVVRTVCLPPADLQLPDWTECELSGYGKHEALSPFYSERLKEAHVRLYPSSRCTSQHLLNRTVTDNMLCAGDTRSGGPQANLHDACQGDSGGPLVCLNDGRMTLVGIISWGLGCGQKDVPGVYTKVTNYLDWIRDNMRP
notes: thrombolytic
  Optical fluorescence signal of fibrin-optical agent complexes on thrombus (clot dissolution and lysis): optical fluorescence signal decreases
